Tests used:
HeLa Kyoto [1] = assay: solubility in G1/S (NP-40 vs SDS abundance) (log2 ratio); higher = more soluble; conditions: cell cycle stage: G1/S
HeLa Kyoto [2] = assay: melting temperature (median over replicates), in situ; higher = more thermally stable
HeLa Kyoto [3] = assay: solubility change mitosis vs G1/S (difference of NP-40 vs SDS log2 ratios) (log2 ratio difference); higher = more soluble in mitosis
HeLa Kyoto [4] = assay: thermal stability score vs G1/S (z-score of summed log2 fold changes over temperatures); higher = more thermally stable than in G1/S
[5] = cell cycle stage: early G1 (4.5 h after nocodazole release)
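For melting temperature (median over replicates), in situ in this document: HeLa Kyoto cells synchronized by double thymidine or nocodazole block, proteins quantified by TMT10plex mass spectrometry, three independent biological replicates.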
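For solubility change mitosis vs G1/S (difference of NP-40 vs SDS log2 ratios) in this document: synchronized HeLa Kyoto cells (double thymidine block for G1/S, nocodazole release for mitosis), protein amounts in NP-40 versus SDS lysates quantified by mass spectrometry, three biological replicates.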
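For solubility in G1/S (NP-40 vs SDS abundance) in this document: HeLa Kyoto cells arrested at G1/S by double thymidine block, proteins quantified by TMT10plex mass spectrometry in mild NP-40 versus SDS extracts, three biological replicates.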
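For thermal stability score vs G1/S (z-score of summed log2 fold changes over temperatures) in this document: synchronized HeLa Kyoto cells, proteins quantified by TMT10plex mass spectrometry, three biological replicates, mitosis taken 0.5 h after nocodazole release, G1/S directly after double thymidine block.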

RHOB, sequence (chain, as listed by the source): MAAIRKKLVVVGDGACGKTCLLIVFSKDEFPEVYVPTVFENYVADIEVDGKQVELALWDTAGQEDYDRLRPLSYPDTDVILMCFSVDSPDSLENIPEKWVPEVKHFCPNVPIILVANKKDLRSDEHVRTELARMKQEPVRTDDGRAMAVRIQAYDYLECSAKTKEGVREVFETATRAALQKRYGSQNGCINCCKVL
THOP1, sequence (chain, as listed by the source): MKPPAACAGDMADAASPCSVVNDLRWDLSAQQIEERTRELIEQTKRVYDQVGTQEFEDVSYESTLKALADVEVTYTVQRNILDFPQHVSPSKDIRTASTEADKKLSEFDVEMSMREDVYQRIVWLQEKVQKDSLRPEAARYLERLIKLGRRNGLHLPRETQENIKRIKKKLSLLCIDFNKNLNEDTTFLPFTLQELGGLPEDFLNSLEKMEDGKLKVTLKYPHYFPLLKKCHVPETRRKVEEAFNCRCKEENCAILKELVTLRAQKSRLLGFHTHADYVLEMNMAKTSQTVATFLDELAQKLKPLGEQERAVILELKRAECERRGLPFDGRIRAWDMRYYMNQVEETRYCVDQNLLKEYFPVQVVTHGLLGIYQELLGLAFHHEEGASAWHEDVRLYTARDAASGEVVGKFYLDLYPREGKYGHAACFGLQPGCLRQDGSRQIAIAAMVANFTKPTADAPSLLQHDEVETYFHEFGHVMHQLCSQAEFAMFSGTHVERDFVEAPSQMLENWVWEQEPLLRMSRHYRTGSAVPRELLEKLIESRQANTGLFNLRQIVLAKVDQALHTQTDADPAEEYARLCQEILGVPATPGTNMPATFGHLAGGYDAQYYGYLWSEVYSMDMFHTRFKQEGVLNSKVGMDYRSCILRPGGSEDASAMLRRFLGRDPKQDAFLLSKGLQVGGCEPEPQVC

| Substance | solubility in G1/S (log2) (HeLa Kyoto [1]) | melting temperature (HeLa Kyoto [2]; cell cycle stage: G1/S) [°C] | melting temperature (HeLa Kyoto [2]; cell cycle stage: mitosis) [°C] | solubility change mitosis (log2) (HeLa Kyoto [3]) | thermal stability score (HeLa Kyoto [4]; [5]) | thermal stability score (HeLa Kyoto [4]; cell cycle stage: mitosis) |
| --- | --- | --- | --- | --- | --- | --- |
| MAPYSLLVTRLQKALGVRQYHVASVLCQRAKVAMSHFEPNEYIHYDLLEKNINIVRKRLNRPLTLSEKIVYGHLDDPASQEIERGKSYLRLRPDRVAMQDATAQMAMLQFISSGLSKVAVPSTIHCDHLIEAQVGGEKDLRRAKDINQEVYNFLATAGAKYGVGFWKPGSGIIHQIILENYAYPGVLLIGTDSHTPNGGGLGGICIGVGGADAVDVMAGIPWELKCPKVIGVKLTGSLSGWSSPKDVILKVAGILTVKGGTGAIVEYHGPGVDSISCTGMATICNMGAEIGATTSVFPYNHRMKKYLSKTGREDIANLADEFKDHLVPDPGCHYDQLIEINLSELKPHINGPFTPDLAHPVAEVGKVAEKEGWPLDIRVGLIGSCTNSSYEDMGRSAAVAKQALAHGLKCKSQFTITPGSEQIRATIERDGYAQILRDLGGIVLANACGPCIGQWDRKDIKKGEKNTIVTSYNRNFTGRNDANPETHAFVTSPEIVTALAIAGTLKFNPETDYLTGTDGKKFRLEAPDADELPKGEFDPGQDTYQHPPKDSSGQHVDVSPTSQRLQLLEPFDKWDGKDLEDLQILIKVKGKCTTDHISAAGPWLKFRGHLDNISNNLLIGAINIENGKANSVRNAVTQEFGPVPDTARYYKKHGIRWVVIGDENYGEGSSREHAALEPRHLGGRAIITKSFARIHETNLKKQGLLPLTFADPADYNKIHPVDKLTIQGLKDFTPGKPLKCIIKHPNGTQETILLNHTFNETQIEWFRAGSALNRMKELQQ [ACO2] | 0.183 | 51.3 | 51.3 | -0.179 | 0.706 | 0.579 |
| MEEEGLECPNSSSEKRYFPESLDSSDGDEEEVLACEDLELNPFDGLPYSSRYYKLLKEREDLPIWKEKYSFMENLLQNQIVIVSGDAKCGKSAQVPQWCAEYCLSIHYQHGGVICTQVHKQTVVQLALRVADEMDVNIGHEVGYVIPFENCCTNETILRYCTDDMLQREMMSNPFLGSYGVIILDDIHERSIATDVLLGLLKDVLLARPELKLIINSSPHLISKLNSYYGNVPVIEVKNKHPVEVVYLSEAQKDSFESILRLIFEIHHSGEKGDIVVFLACEQDIEKVCETVYQGSNLNPDLGELVVVPLYPKEKCSLFKPLDETEKRCQVYQRRVVLTTSSGEFLIWSNSVRFVIDVGVERRKVYNPRIRANSLVMQPISQSQAEIRKQILGSSSSGKFFCLYTEEFASKDMTPLKPAEMQEANLTSMVLFMKRIDIAGLGHCDFMNRPAPESLMQALEDLDYLAALDNDGNLSEFGIIMSEFPLDPQLSKSILASCEFDCVDEVLTIAAMVTAPNCFSHVPHGAEEAALTCWKTFLHPEGDHFTLISIYKAYQDTTLNSSSEYCVEKWCRDYFLNCSALRMADVIRAELLEIIKRIELPYAEPAFGSKENTLNIKKALLSGYFMQIARDVDGSGNYLMLTHKQVAQLHPLSGYSITKKMPEWVLFHKFSISENNYIRITSEISPELFMQLVPQYYFSNLPPSESKDILQQVVDHLSPVSTMNKEQQMCETCPETEQRCTLQ [DHX32] | -0.155 | 49.4 | 50 | -0.152 | -0.0722 | 0.258 |
| ATRX | -1.33 | 49.2 | 51.4 | 0.492 | -0.452 | 0.516 |
| MEIPGSLCKKVKLSNNAQNWGMQRATNVTYQAHHVSRNKRGQVVGTRGGFRGCTVWLTGLSGAGKTTVSMALEEYLVCHGIPCYTLDGDNIRQGLNKNLGFSPEDREENVRRIAEVAKLFADAGLVCITSFISPYTQDRNNARQIHEGASLPFFEVFVDAPLHVCEQRDVKGLYKKARAGEIKGFTGIDSEYEKPEAPELVLKTDSCDVNDCVQQVVELLQERDIVPVDASYEVKELYVPENKLHLAKTDAETLPALKINKVDMQWVQVLAEGWATPLNGFMREREYLQCLHFDCLLDGGVINLSVPIVLTATHEDKERLDGCTAFALMYEGRRVAILRNPEFFEHRKEERCARQWGTTCKNHPYIKMVMEQGDWLIGGDLQVLDRVYWNDGLDQYRLTPTELKQKFKDMNADAVFAFQLRNPVHNGHALLMQDTHKQLLERGYRRPVLLLHPLGGWTKDDDVPLMWRMKQHAAVLEEGVLNPETTVVAIFPSPMMYAGPTEVQWHCRARMVAGANFYIVGRDPAGMPHPETGKDLYEPSHGAKVLTMAPGLITLEIVPFRVAAYNKKKKRMDYYDSEHHEDFEFISGTRMRKLAREGQKPPEGFMAPKAWTVLTEYYKSLEKA [PAPSS1] | 0.104 | 53.6 | 53.8 | -0.174 | 0.0766 | -0.551 |
| RHOB | 0.157 | 57.2 | 58.2 | -0.114 | -0.544 | -0.587 |
| MAVESRVTQEEIKKEPEKPIDREKTCPLLLRVFTTNNGRHHRMDEFSRGNVPSSELQIYTWMDATLKELTSLVKEVYPEARKKGTHFNFAIVFTDVKRPGYRVKEIGSTMSGRKGTDDSMTLQSQKFQIGDYLDIAITPPNRAPPPSGRMRPY [SAP18] | -0.67 | 47.5 | 49.7 | 0.699 | 0.467 | 3.26 |
| MPKRKAAGQGDMRQEPKRRSARLSAMLVPVTPEVKPKRTSSSRKMKTKSDMMEENIDTSAQAVAETKQEAVVEEDYNENAKNGEAKITEAPASEKEIVEVKEENIEDATEKGGEKKEAVAAEVKNEEEDQKEDEEDQNEEKGEAGKEDKDEKGEEDGKEDKNGNEKGEDAKEKEDGKKGEDGKGNGEDGKEKGEDEKEEEDRKETGDGKENEDGKEKGDKKEGKDVKVKEDEKEREDGKEDEGGNEEEAGKEKEDLKEEEEGKEEDEIKEDDGKKEEPQSIV [HMGN5] | 0.255 | 59.9 | 59.8 | 0.272 | -0.636 | -5.4 |
| HEATR1 | -1.01 | 48.4 | 49.2 | 0.265 | 1.16 | 2.97 |
| THOP1 | 0.0611 | 56.3 | 56.1 | -0.109 | -1.55 | -2.28 |
| MAAEWASRFWLWATLLIPAAAVYEDQVGKFDWRQQYVGKVKFASLEFSPGSKKLVVATEKNVIAALNSRTGEILWRHVDKGTAEGAVDAMLLHGQDVITVSNGGRIMRSWETNIGGLNWEITLDSGSFQALGLVGLQESVRYIAVLKKTTLALHHLSSGHLKWVEHLPESDSIHYQMVYSYGSGVVWALGVVPFSHVNIVKFNVEDGEIVQQVRVSTPWLQHLSGACGVVDEAVLVCPDPSSRSLQTLALETEWELRQIPLQSLDLEFGSGFQPRVLPTQPNPVDASRAQFFLHLSPSHYALLQYHYGTLSLLKNFPQTALVSFATTGEKTVAAVMACRNEVQKSSSSEDGSMGSFSEKSSSKDSLACFNQTYTINLYLVETGRRLLDTTITFSLEQSGTRPERLYIQVFLKKDDSVGYRALVQTEDHLLLFLQQLAGKVVLWSREESLAEVVCLEMVDLPLTGAQAELEGEFGKKADGLLGMFLKRLSSQLILLQAWTSHLWKMFYDARKPRSQIKNEINIDTLARDEFNLQKMMVMVTASGKLFGIESSSGTILWKQYLPNVKPDSSFKLMVQRTTAHFPHPPQCTLLVKDKESGMSSLYVFNPIFGKWSQVAPPVLKRPILQSLLLPVMDQDYAKVLLLIDDEYKVTAFPATRNVLRQLHELAPSIFFYLVDAEQGRLCGYRLRKDLTTELSWELTIPPEVQRIVKVKGKRSSEHVHSQGRVMGDRSVLYKSLNPNLLAVVTESTDAHHERTFIGIFLIDGVTGRIIHSSVQKKAKGPVHIVHSENWVVYQYWNTKARRNEFTVLELYEGTEQYNATAFSSLDRPQLPQVLQQSYIFPSSISAMEATITERGITSRHLLIGLPSGAILSLPKALLDPRRPEIPTEQSREENLIPYSPDVQIHAERFINYNQTVSRMRGIYTAPSGLESTCLVVAYGLDIYQTRVYPSKQFDVLKDDYDYVLISSVLFGLVFATMITKRLAQVKLLNRAWR [EMC1] | 0.0605 | 55.1 | 54.8 | -0.266 | 1.42 | 1.57 |
| MNGEADCPTDLEMAAPKGQDRWSQEDMLTLLECMKNNLPSNDSSKFKTTESHMDWEKVAFKDFSGDMCKLKWVEISNEVRKFRTLTELILDAQEHVKNPYKGKKLKKHPDFPKKPLTPYFRFFMEKRAKYAKLHPEMSNLDLTKILSKKYKELPEKKKMKYIQDFQREKQEFERNLARFREDHPDLIQNAKKSDIPEKPKTPQQLWYTHEKKVYLKVRPDATTKEVKDSLGKQWSQLSDKKRLKWIHKALEQRKEYEEIMRDYIQKHPELNISEEGITKSTLTKAERQLKDKFDGRPTKPPPNSYSLYCAELMANMKDVPSTERMVLCSQQWKLLSQKEKDAYHKKCDQKKKDYEVELLRFLESLPEEEQQRVLGEEKMLNINKKQATSPASKKPAQEGGKGGSEKPKRPVSAMFIFSEEKRRQLQEERPELSESELTRLLARMWNDLSEKKKAKYKAREAALKAQSERKPGGEREERGKLPESPKRAEEIWQQSVIGDYLARFKNDRVKALKAMEMTWNNMEKKEKLMWIKKAAEDQKRYERELSEMRAPPAATNSSKKMKFQGEPKKPPMNGYQKFSQELLSNGELNHLPLKERMVEIGSRWQRISQSQKEHYKKLAEEQQKQYKVHLDLWVKSLSPQDRAAYKEYISNKRKSMTKLRGPNPKSSRTTLQSKSESEEDDEEDEDDEDEDEEEEDDENGDSSEDGGDSSESSSEDESEDGDENEEDDEDEDDDEDDDEDEDNESEGSSSSSSSSGDSSDSDSN [UBTF] | -1.89 | 47.2 |  | 0.149 | 8.89 | 15.5 |
| MTCWLRGVTATFGRPAEWPGYLSHLCGRSAAMDLGPMRKSYRGDREAFEETHLTSLDPVKQFAAWFEEAVQCPDIGEANAMCLATCTRDGKPSARMLLLKGFGKDGFRFFTNFESRKGKELDSNPFASLVFYWEPLNRQVRVEGPVKKLPEEEAECYFHSRPKSSQIGAVVSHQSSVIPDREYLRKKNEELEQLYQDQEVPKPKSWGGYVLYPQVMEFWQGQTNRLHDRIVFRRGLPTGDSPLGPMTHRGEEDWLYERLAP [PNPO] | 0.682 | 53.5 | 54.3 | -0.0358 | -1.68 | -1.82 |
| MFGPAKGRHFGVHPAPGFPGGVSQQAAGTKAGPAGAWPVGSRTDTMWRLRCKAKDGTHVLQGLSSRTRVRELQGQIAAITGIAPGGQRILVGYPPECLDLSNGDTILEDLPIQSGDMLIIEEDQTRPRSSPAFTKRGASSYVRETLPVLTRTVVPADNSCLFTSVYYVVEGGVLNPACAPEMRRLIAQIVASDPDFYSEAILGKTNQEYCDWIKRDDTWGGAIEISILSKFYQCEICVVDTQTVRIDRFGEDAGYTKRVLLIYDGIHYDPLQRNFPDPDTPPLTIFSSNDDIVLVQALELADEARRRRQFTDVNRFTLRCMVCQKGLTGQAEAREHAKETGHTNFGEV [YOD1] | 0.0787 | 50.2 | 50.2 | 0.0334 | 0.646 | 1.06 |

Source: the supplement of paper PMC5998384
